The text below walks through data of a protein production outcome set (Wang et al. 2014).
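Further: failed if final PepcDB status was selected cloned or expressed and not failed if soluble or beyond.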

This data set is described as follows: label from the status in PepcDB records.
As to “MNVSRLCSLYPTLLIPLLFVAGCGLFASSTAPVSRSPESMAREAEEFQSSRRFEDAIAQWRKVKESYISPELITLAEIKIADAQFDSGNYIEAAASYEEFRKLHPNHEKSAYALYRQGLSYFNQIHGFDTDQTPVSNTVTIFESFLRLYPQSEHAEEVRNKLDAARQNQVQYEIYVGQFYYRTEKYTSAIKRLEDALKRYPRSPLHDETLYYLGKAYIKAGDKAGGREAFQRLFNEFRTSKYVDEARSFLDKNF”, the protein production entry is “failed”. Turning to “MNWGEGEWNSFFHFFTKEFINMSESFKELFEQSIAGAQFYPGAIITAKVIDIDDDFVTLNAGLKSEGIVAVEEFYDKNGELEVKVGDTVEVALDSVEDGHGETLLSREKAKRQEAWRKLSKCHENNETVTGLISGKVKGGFTVEIGSIRAFLPGSLVDVRPVRDPSYLEGKELEFKVIKMDLKRNNIVVSRRAVVEEESSADRQALLESLHDGQELHGIVKNLTDYGAFIDLGGIDGLLHITDISWKRVKHPSEVLSVGQDVKVKVLSFDSERNRVSLGMKQLGNDPWVDLVERYPIGKRLQGKVTNITDYGCFVEIEEGVEGLVHMSEMDWTNKNVHPSKVVSLGDVVDVMVLEIDEERRRISLGMKQCVGNPWQQFASTHNKGEKVKGKIRSITDFGIFIGLDGDIDGLVHLSDISWTVPGEEAVKQFKKGQELEAVILAIDPERERISLGLKQLEGDSFASFAETYTKGSIVKGTVTAVEPKTVTVALAEDVSGTIRVSELSDERVDDATTIVKVGDEVEAKITNIDRKNRTISLSVKAKDAQDEADAIKKYSRTEAASTTLGDLLKEKMASKEGELEHHHHHH”, the protein production result is listed as “not failed”. “MNWIILTIAGCFEVLFTFCMGKVKETTGTEMYLWFTGFLIATLISMLLLVKATHNLPIGTAYAVWTGIGAVGTVLVGILVFKEPAGFWRLFFIVMLIGSIIGLKMVSHG”: the protein production result is “failed”. Turning to “MNWKRLVQFYSVPPSQAALALGMIGLGQAWALYVPDIGTPIRPFLASFGALLLAPVLIKYATNPRLFMADIKHPLSGSLMAPMSMALLILTDYLASVAPLIAYPLWCLAVLLHFTMMVLFFGFQLMNFKMSNIVPSWFLYPVGLISSSLAGSQFGHNLFSETLAIMCIGIYFFMLPLVLYRLVFFGSLPRRARPTLAIMAAPVNLSLAAYLVNFPQPDPILTGALAGIAITMTLLIYLCYFRLLRLKFQPSIAAVTFPSVISAIAMHRLTSFFAQSHPQWHWLHDFGFLELSIATVLVVWVSAGYVKMYWPEIVRTPTKQA”, the protein production result is recorded as “failed”. As for “MNYEEIVCDANNLYRAYKASVKTSKWKETTQKFMMNFLRYIFSIQDDLINRTLQNGPTQEFTLFERGRVRPITSIQIRDRIIRHVLCDEILLPEVKKHIIYDNCASIKGRGISHQRDRFEVHLRKYYRLYGNEGWILFGDFSKFYDNIIHEIAKRELLRLFDDDEFIDWLLTQIFDGFKIDVSYMTDEEYATCMTDTFNKLEYRNIPESKLTGEKWMEKSVNIGDQLSQVIGIYYPYRIDNYVKYVRSQKFYGRYMDDWYIMNPSKEELLDLLDHIHQIAEEYGIHINRKKTRIVKISSTYKFLQIKYSLTDSGKVIKRINPKRVTAMRRKLKRLAVKVKNEEISYENVENMFRSWMGGFYKLLSKEQRKNLIGLYEDLFEKSIEIVNKKMIIVDKTR”, the protein production result is listed as “failed”. The same measure for “MNYGFVKVAAAVPRVKVADCKFNSERLEGLITIAEGKGVQILTFPEMCITGYTCGDLFAQQLLLEQAEMALIQILNSTRQLDIISILGMPVVVNSTVINAAVVIQKGKILGVVPKTYLPNYKEFYEQRWFTSALQVSENSVRLCGQIVPMGNNLLFETAETTFGIEICEDLWATVPPSSSLALQGAEIIFNLSADDEGIGKHNYLCSLISQQSARCISGYVFSSSGFGESTTDVVFAGNGLIYENGYLLARSERFCMEEQLIINEIDVECIRAERRVNTTFAANKANCPGKEAVRISTEFVNSKDLNLTRTFNPHPFVPQGNELNSRCEEIFSIQIAGLAQRLLHTGAKTAVIGISGGLDSTLALLVCVKTFDKLGLSRKDILGITMPGFGTTDRTYHNAIDLMNSLGVSIREISIREACIQHFKDIGHDLNIHDVTYENSQARERTQILMDIANQTWGMVIGTGDLSELALGWATYNGDHMSMYGVNAGIPKTLVKHLVQWVAENGMDETSKATLLDIVDTPISPELEHHHHHH”: “not failed”; for “MNYKVLAYITAYNDYFALNRCIDGLINQTYKIDYLLIVDNSSRPIPIQKLGNNLSIEVQHHPENIGVAGGLTLGIQYAIHKKFDFIWLFDQDSTPYENALENLIYFYDKYINKSEIGILSCAVQDRETGQINCGFIYKNYRFYQQQIDSRKAVYECDAVITSGTLLNCHAAKEIGLPNESLFMDAVDFDYCMKLRKQDYKIFTVCNAKINHRFGNSKSIQLFNRTKFIYLYSSLRYFYVHRNHTYLETRLAKNCLFFIISTFYRIFKSFRKIFVILLFEDSQRLLKIYACSKGTVDGLLGKLGKTWT”: “failed”; for “MNYSRIAEAIEYIRAHYKEQPGLDEVAEKVHLSPFHFQRIFTEWAGISPKKFLQYISLEHHHHHH”: “failed”.

Consider “MNYVELLGYLAMLLVGLSFLMKDVIKLRFVNALGCICFSIYGILIGSFPVAALNGFVACTNIYFLINNNKD”, for which the protein production result is “failed”. The result for “MNYYGTSMWASDNNTASNSDSSLNLLGILLLASENNKLINNTVLTNLYGVNLMAESTGIGDKTGPSENILASNIISYNLGTGILFDESYGNLIYNNSFDNIWNVEDESLNTWNSSEIGNYWSDYEGEDADGDGVGDTPYLINSHTGSMDYLPVTRSSDFPELEHHHHHH” reads “failed”. With “MPAASQDNDGGPSQSGGPMADPAPLIDTDPARIGEYTLLGRLGQGGQGVVYLGSAPDGARVAVKTLHRDALDLPGLREQLAEEVEMARRVARFCTAQVLAADLDADPPYVVSEYVEGPSLQAVVRERGPLRGASLERLAVGTLTALAAIHQAGIVHRDFKPANVLMAPGGPRVIDFGIARALEGTAILTSRIAGTPAYMAPEQITGGPLGPAVDMFAWGATLVYAANGRGPFGHGSLKAVVQRVINDEPDFGELSGTLREIAERCLNKDAAQRPTAAETLMLVLGIEGPPPTEEPSTDTAIPVTHQTLVAGAIAAADTGEQESAAELYRSYPPAPPPPHSNVAAQPSPTPPPHPQTASGPQPSLPSTGAQHSGYGYATGPHQSGYGYATGPQQGGYAPPPGPHQHAYPTPHSGNAAIPPHGGPSGPYAPAQPWMPSTGGYPQTSQPYSGQQYQQQAEGTSTAFVLGVVSIAVIAGVLLFILLFLLIGSLG”, the protein production result is given as “failed”. With “MPAFRVPRVRRAQHAEVALGAVLGVMLIGLSVLISRFHLQPVEGVTVLAQLADASLGHNWAFYVVQFATMILLALSANTSFGGLPVLLKLPARDNYLPHVFALKADRQVHRHGVLTLAGVVAALLVFSGGDTNTLVPLFAIGVFIGFTIAQVGMVRHWRAE”, the protein production result was “failed”. In the case of “MPAGSDWRTQPPSDYAQWNPAPRMPNQPKPLTTAHHQFAAIVQNSFDAIVSKDVEGNVQSWNPAAEQIFGWTADEMIGNSIRVLIPPDRQHEEDDILQRIRTGEMVPKFETERLHKSGRRIHVAVTVSPLRDPDGRIVGASKIAHDITETVEIRRRLVASEHQFRSLANSIPQLAWIAESDGTVFWYNDRWFDYTGTTLEQLRGSGWTALHHPDHLERVRSKLQHSWDTGEAWEDTFPLRGKDGEYRWFLSRAMPLRDDSGEVWRWFGTNTDITVQRQHEQQIQMLMGEINHRAKNMLAVVQAMVMRTADRSFAESLGARLQALSRNQDLLIKRNWSGTPIGELIESQLAAVNDLIGTRVLIEGERELLLSPVASETIGLAIHELTTNATKYGALSNADGTVRIACEIRHTVDGPKLDLIWHEQGGPPVGEPNRAGFGTVMIDRNPRSALGADVEISYPESGLRWCLNAPLDRLVATP”, the protein production result is recorded as “not failed”. With “MPAIMPMLWKQPFGNNLWGLKMKKVEKLLIIGIVLISSILLGAMTLAKPAQANASIVIVIDNEVKHRIPLMVEEEMQTYEFKFGEQTGYLEVKNGKVRMLEMPKEICPEGICSETGWIARSSQAIVCLPNKIIVTIQGLDDKNDEIL”, the protein production result was “failed”. For “MPAKRRSNARPARAWPTCLSRGSSAVKRVHVAAAVIRDASGKILIARRADTQHQGGLWEFPGGKVEPGEAVEAALARELQEELGIAVTAARPLIKVQHDYPDKQVLLDVWEVSAFSGEPHGAEGQPLAWVTARELADYEFPAANQPIVAAARLPAQYLITPEGLETPTLLRGMQKAVAQGCKLIQLRAPGGYDPQYRDLAVDAVGLCAGKAQLMLKGPFEWLGDFPSAGWHITAAQLRKYASAGRPFGKDRWLAASCHNAEELSLAQQMDVDFVTLSPVQPTQTHPDAQPLGWQQAEQLISGFNKPVYLLGGVGPAECQQAWAAGAQGVAGIRAFWPQD”, the protein production entry is “failed”. Regarding “MPAPKKALRRSLTVTSAALTALALLSPAALAAPSPSTSPSATPPASMSGVGGARLGKPGTQVDLAGGAPVLPKDLTARSWIVADAESGDVLAAHNAHWELAPASTLKMLFADTLLPKWPKTTKRKVQVSDLAGIGSGSSMVGIKEEETYTVHDLWLGVFLRSGNDAVHVLSAMNDGVEKTVADMNAHAKELQAGDTTVVSPDGYDMPGQVSSAYDLTLFARSGLQKKDFREYASTVRAKFPGETKKDKKGKTSREPFEIQNTNRLLAGDADVEVYPGIAGVKNGYTTNAGNTFTGVAEQGGKVLLVTVMHPAEDKHNEVYKETARLFDWGFRAAGKVRPVGELVRPRSATAASPSAEASGEAGGTGKGGAGTKPVAGAAAGDGAGGAGVAAGIAAGVLALLAGGAFLINRKWPLPDLVRRRTRP”, the protein production result is given as “failed”. Regarding “MPASETQGGPPPDDHTDAEPPPPLPEQSDFADAVLAAMPDPVFVFGPQNTLAWGNPPLRQAVGHSAAALRGKSLPELFGKGDAAAVEQALDAVRAGRDTATAEVALLPREGPPRPCTFTARPLSGDVGPPNCVVGIAR”, the protein production result is given as “failed”. For “MPAYDLIIRNGTICDGTGAPRFTGDVAVKNGLIVAVGAVRGDAAEEVDATGRIVAPGWVDVHTHYDGQATWDPEMAPSSWHGVTTVIMGNCGVGFAPAAPDRHDWLIGLMEGVEDIPGTALAEGMAWDWESFPEYLDSLEKMPRAVDVGTHVPHGAVRAYVLGEREKPGAVPTAEDIRKMSEIVEEGVRAGALGFSTSRTVIHKSVDGEVVPGTTATAEELIEIGRAMGRVGHGVFEMASDMKREWDEFGWMGALSRETGLPVTYAALQSIAKEMPLEEQIAEMRHQNAQGANIVAQIALRGNGVIMAWRGTIHPFRFRPSYAAIAELPWEEQLVQLKDPAFRAKVLAEANVYPDSDIVNLFRMIAEGWHNQFIMDEDFDYEPQPEASILLRAKTAGVSPDAFAYDKLMEDEGNGFIYLPILNYADGNLDFLEALQAADDTVNSLSDGGAHCGTICDAASPTFMLQHWVRDRRRGSRISLEHAIKRQCHDTARLYGLDDRGVIAPGYLADINVIDFDRVRLLKPWLAFDLPAGGKRLLQKAEGYDYTIKGGKVTFRNGEWTGATPGNLIRGPQRADLMEAAE”, the protein production result was “failed”.

Take “MPDATLSNTSLGRLAWLWLTVLIVAVDQVSKYYFENALSLYQQIIVIPDYFSWTLAYNTGAAFSFLADGAGWQRWLFALIAVVVSAVLVVWLKRLGRDDTWLAIALALVLGGALGNLYDRVVLGHVIDFILVHWQNRWYFPAFNVADSAITVGAIMLALDMFKSKKTGETVND”: the protein production entry is recorded as “failed”. In the case of “MPDIDLHALSRTVLWATFALTFLFGAILQRTHFCTMGAVSDAVNIGDWSRLRMWALAIGVAMIGTGILGWAGWIDPAKTIYAAGRLQWLSALVGGLMFGFGMVLGSGCGSKTLVRIGGGNLKSVVVFVFLGLSAYMTLKGVFGVVRVATVDAVAIALPTTQDLPSVLGHALSADVRMLRLALALAIGGALAVWALAGRDFRTPDNLLGGIGVGLVIVAMWYVSGHLGYVAEDPDTLQEAFVATNSGRMEALSFVAPVSYTLEWLMFFSDTSKVLTVGIVSVLGVIAGSAAVALASGTFRWEGFANAEDTGNHIVGGILMGAGGVTALGCTIGQGLSGVSTLAIGSFVALAGILAGAVLAFRYQMWRLERGG”, the protein production result is on record as “failed”.
